Data set [1] concerns the target T1, sst4 (Homo sapiens, UniProt P31391).
T1 construct: expressed in transfected cells; host or cells: CCL39 cells (gift of Dr. D. Hoyer, Novartis)
Put plainly: Receptor autoradiography binding affinity, sst4. The note with it: membrane pellet sections of sst4-expressing CCL39 cells; mean ± SEM, n ≥ 3. As for the experimental part: (§1) Cell membrane pellets were prepared from human sst1-expressing Chinese hamster ovary cells (kindly provided by Drs. T. Reisine and G. Singh, University of Pennsylvania, Philadelphia, Pa.); sst2-, sst3-, and sst4-expressing CCL39 cells (kindly provided by Dr. D. Hoyer, Novartis Pharma, Basel, Switzerland); and sst5-expressing human embryonic kidney 293 (HEK293) cells (kindly provided by Prof. Stefan Schulz, University of Jena, Germany) and stored at − 80 °C. Quantitative receptor autoradiography was performed on 20-μm-thick membrane pellet sections and quantitated as previously described.

Data set [2] concerns the target T2, sst5 (Homo sapiens, UniProt P35346).
T2 construct: expressed in transfected cells; host or cells: HEK293 cells (gift of Prof. Stefan Schulz, University of Jena)
Kind of data set: Receptor autoradiography binding affinity, sst5. The note with it: membrane pellet sections of sst5-expressing HEK293 cells; mean ± SEM, n ≥ 3. As for the experimental part: as §1

For data set [3], the target named is T3, sst2 (Homo sapiens, UniProt P30874).
T3 construct: expressed in transfected cells; host or cells: CCL39 cells (gift of Dr. D. Hoyer, Novartis)
T3 sequence (P30874 whole entry): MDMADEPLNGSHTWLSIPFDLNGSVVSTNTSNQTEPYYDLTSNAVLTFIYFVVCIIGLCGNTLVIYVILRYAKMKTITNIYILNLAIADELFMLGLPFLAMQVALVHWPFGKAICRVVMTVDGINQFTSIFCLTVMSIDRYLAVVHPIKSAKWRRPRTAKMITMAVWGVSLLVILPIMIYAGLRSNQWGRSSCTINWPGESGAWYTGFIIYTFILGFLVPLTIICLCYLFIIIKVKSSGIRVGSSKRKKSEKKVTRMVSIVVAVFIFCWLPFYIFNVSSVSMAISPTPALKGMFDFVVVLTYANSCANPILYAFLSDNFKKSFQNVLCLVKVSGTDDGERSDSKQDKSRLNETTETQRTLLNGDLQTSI
Put plainly: Receptor autoradiography binding affinity, sst2. The note with it: membrane pellet sections of sst2-expressing CCL39 cells; mean ± SEM, n ≥ 3. As for the experimental part: as §1

For data set [4], the target named is T4, sst3 (Homo sapiens, UniProt P32745).
T4 construct: expressed in transfected cells; host or cells: CCL39 cells (gift of Dr. D. Hoyer, Novartis)
T4 sequence (P32745 whole entry): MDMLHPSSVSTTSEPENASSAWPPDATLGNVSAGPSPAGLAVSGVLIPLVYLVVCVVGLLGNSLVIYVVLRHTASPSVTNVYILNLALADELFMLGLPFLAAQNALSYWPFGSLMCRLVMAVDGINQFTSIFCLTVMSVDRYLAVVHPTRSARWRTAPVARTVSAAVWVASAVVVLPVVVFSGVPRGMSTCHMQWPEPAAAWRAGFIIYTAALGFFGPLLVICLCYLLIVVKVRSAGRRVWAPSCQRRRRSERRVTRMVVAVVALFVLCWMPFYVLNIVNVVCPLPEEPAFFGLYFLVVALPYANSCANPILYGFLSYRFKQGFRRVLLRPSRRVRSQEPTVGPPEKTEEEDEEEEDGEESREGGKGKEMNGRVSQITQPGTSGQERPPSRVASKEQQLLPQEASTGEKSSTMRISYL
Put plainly: Receptor autoradiography binding affinity, sst3. Conditions: membrane pellet sections of sst3-expressing CCL39 cells; mean ± SEM, n ≥ 3. The method, then:
as §1

Data set [5] addresses T5, sst1 (Homo sapiens, UniProt P30872).
T5 construct: expressed in transfected cells; host or cells: Chinese hamster ovary cells (gift of Drs. T. Reisine and G. Singh)
Put plainly: Receptor autoradiography binding affinity, sst1. Conditions: membrane pellet sections of human sst1-expressing CHO cells; mean ± SEM, n ≥ 3. As for the experimental part:
as §1

Data set [6] is classed as physicochemical. The method, then:
The distribution coefficients (log D) were determined using the shake-flask method (see Additional file 1). […]
equivalents of DIPEA were used. The cleavage and deprotection of the peptide-chelator conjugates was accomplished by incubating for 1.5h in TFA:thioanisole:triisopropylsilane:H2O 95:2:2:1. The resin was then filtered and washed with the above mixture, after which the filtrate was evaporated and triturated with diethyl ether to give the crude product. This was purified by semi-preparative HPLC to obtain the corresponding chelator-peptide conjugate with purity ≥97%.
Radiolabeling of Chelator-Peptide Conjugates
177Lu-SS-03: 10 µg of SS-03 in 300 µL sodium acetate buffer (0.4 mol/L, pH 5.0) were […]
phosphate buffer pH 11.5 (50 μL) and 0.1 M sodium citrate (5 μL) followed by SS-04 solution (30 μg, 25 μL) and freshly prepared SnCl2 solution in ethanol (30 μg, 25 μL). […]
99mTc-SS-05: 30 µg SS05 was added to 1 mL aqueous edda/tricine solution (5 mg edda, 15 mg tricine). […] All radiolabeled peptides were analyzed with analytical HPLC. […]
Each radiopeptide was added to a presaturated 1/1mixture of PBS/n-octanol, at a concentration of 100 nmol/L. The mixtures were vigorously shaken for 10 min and then centrifuged. The activity concentrations of equal volume samples of both phases were measured in a γ-counter and the partition coefficient (LogD) was calculated. […]

The nature of the next data set: in vivo. Set-up: species or system mice. The note with it: female, athymic nude, mouse, iv, 10 pmol, total radioactivity. The method, then: All animal experiments were conducted in compliance with Swiss animal protection laws and associated regulations. The protocol was approved by the Cantonal Veterinary Ethics Committee of the University of Basel (approval #789). Female athymic nude mice (4–6 weeks old) were injected subcutaneously (s.c.) in the right shoulder with 10^7 HEK293-rsst2 cells in 100 μL sterile PBS. The tumours were allowed to grow for 14–18 days (tumour weight 100–200 mg).
The mice were injected into the tail vein with 100 μL/10 pmol/0.37 MBq of ^177Lu-SS-03 or ^99mTc-SS-04 and were euthanised at 1, 4, and 24 h post-injection (p.i.). Organs of interest and blood were collected, rinsed of excess blood, blotted dry, weighed, and counted in a γ-counter. To determine nonspecific uptake, three animals were pre-injected with 20 nmol of the relevant unlabelled peptide in 0.9% NaCl solution (0.1 mL); after 5 min, the radiopeptide was injected and the percentage of injected activity per gram (%IA/g) was calculated for each tissue. The total counts injected per animal were determined by extrapolation from counts of an aliquot taken from the injected solution as a standard.

The target in data set [7] is T4, sst3. The note with it: mean ± SEM; cited from earlier work. An excerpt: Table 2 Binding affinities (IC50, nM) of chelator-peptide conjugates | column: IC50 (nM)* / sst3
Data set [8] deals with T1, sst4. The note with it: mean ± SEM; cited from earlier work. The source says:
Table 2 Binding affinities (IC50, nM) of chelator-peptide conjugates | column: IC50 (nM)* / sst4

Data set [9] deals with T2, sst5. The note with it: mean ± SEM; cited from earlier work. The source says:
Table 2 Binding affinities (IC50, nM) of chelator-peptide conjugates | column: IC50 (nM)* / sst5

In data set [10] the target is T5, sst1. The note with it: mean ± SEM; cited from earlier work. The source says: Table 2 Binding affinities (IC50, nM) of chelator-peptide conjugates | column: IC50 (nM)* / sst1
In data set [11] the target is T3, sst2. The note with it: mean ± SEM; cited from earlier work. The source says: Table 2 Binding affinities (IC50, nM) of chelator-peptide conjugates | column: IC50 (nM)* / sst2

Like-named read-outs stand apart in the source and are kept apart here. Bounds are passed on as bounds.

The values that follow come from PMC6070450, “The tetraamine chelator outperforms HYNIC in a new technetium-99m-labelled somatostatin receptor 2 antagonist” (EJNMMI Research, 2018).

As usually defined, the IC50 is the point on the concentration scale where inhibition reaches its midpoint. What is called tissue uptake is the percentage of the injected dose found per gram of tissue.

T1 sequence (P31391 whole entry): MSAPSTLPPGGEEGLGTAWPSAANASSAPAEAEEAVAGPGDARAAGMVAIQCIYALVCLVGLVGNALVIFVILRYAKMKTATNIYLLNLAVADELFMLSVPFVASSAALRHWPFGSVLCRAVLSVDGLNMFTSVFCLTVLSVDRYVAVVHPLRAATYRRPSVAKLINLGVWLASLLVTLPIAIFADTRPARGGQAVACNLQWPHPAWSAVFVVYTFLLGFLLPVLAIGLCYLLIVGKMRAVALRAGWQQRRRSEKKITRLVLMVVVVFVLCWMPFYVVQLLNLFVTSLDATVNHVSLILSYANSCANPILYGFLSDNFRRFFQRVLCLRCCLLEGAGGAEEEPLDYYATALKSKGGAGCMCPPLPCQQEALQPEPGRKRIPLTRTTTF
T2 sequence (P35346 whole entry): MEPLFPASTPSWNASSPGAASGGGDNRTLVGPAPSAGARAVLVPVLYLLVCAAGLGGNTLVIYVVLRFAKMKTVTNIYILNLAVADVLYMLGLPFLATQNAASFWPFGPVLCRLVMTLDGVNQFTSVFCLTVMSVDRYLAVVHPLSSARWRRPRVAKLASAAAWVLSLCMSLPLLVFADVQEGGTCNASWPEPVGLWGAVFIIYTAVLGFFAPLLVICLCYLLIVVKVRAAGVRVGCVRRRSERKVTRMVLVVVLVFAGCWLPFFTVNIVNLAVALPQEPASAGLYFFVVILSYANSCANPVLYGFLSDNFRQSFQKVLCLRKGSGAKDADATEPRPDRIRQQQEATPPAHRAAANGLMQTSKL
T5 sequence (P30872 whole entry): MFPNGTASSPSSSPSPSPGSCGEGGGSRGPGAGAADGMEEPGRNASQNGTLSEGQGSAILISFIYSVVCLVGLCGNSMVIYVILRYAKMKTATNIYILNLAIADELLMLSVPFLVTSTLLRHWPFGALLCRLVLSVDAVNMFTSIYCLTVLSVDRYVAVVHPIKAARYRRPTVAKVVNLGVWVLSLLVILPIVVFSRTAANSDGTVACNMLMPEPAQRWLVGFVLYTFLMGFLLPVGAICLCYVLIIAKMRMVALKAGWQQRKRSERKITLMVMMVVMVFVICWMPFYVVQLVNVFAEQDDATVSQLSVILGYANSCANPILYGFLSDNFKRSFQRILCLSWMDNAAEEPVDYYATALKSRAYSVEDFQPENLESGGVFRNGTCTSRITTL

`C[C@@H](O)[C@@H]1NC(=O)[C@H](CCCCN)NC(=O)[C@@H](Cc2c[nH]c3ccccc23)NC(=O)[C@H](Cc2ccc(O)cc2)NC(=O)[C@H](NC(=O)[C@H](Cc2ccc(Cl)cc2)NC(=O)CN2CCN(CC(=O)O)CCN(CC(=O)O)CCN(CC(=O)O)CC2)CSSC[C@@H](C(=O)N[C@H](Cc2ccc(O)cc2)C(N)=O)NC1=O` [SS-03, DOTA-(4-Cl)-Phe-Cyclo(D-Cys-Tyr-D-Trp-Lys-Thr-Cys)-D-Tyr-NH2]: the IC50 on sst4 [1] was 404 ± 92 nM; at sst5 [2], 564 ± 174 nM; on sst2 [3], 1.7 ± 0.06 nM; on sst3 [4], above 1000 nM; at sst1 [5], above 1000 nM.
As to `C[C@@H](O)[C@@H]1NC(=O)[C@H](CCCCN)NC(=O)[C@@H](Cc2c[nH]c3ccccc23)NC(=O)[C@H](Cc2ccc(O)cc2)NC(=O)[C@H](NC(=O)[C@H](Cc2ccc(Cl)cc2)NC(=O)C(CNCCN)CNCCN)CSSC[C@@H](C(=O)N[C@H](Cc2ccc(O)cc2)C(N)=O)NC1=O` [SS-04, N4-(4-Cl)-Phe-Cyclo(D-Cys-Tyr-D-Trp-Lys-Thr-Cys)-D-Tyr-NH2], the IC50 at sst4 [1] is 171 ± 35 nM; on sst5 [2], 228 ± 73 nM; on sst2 [3], 5.3 ± 0.17 nM; at sst3 [4], 720 ± 74 nM; at sst1 [5], above 1000 nM.
In the case of `C[C@@H](O)[C@@H]1NC(=O)[C@H](CCCCN)NC(=O)[C@@H](Cc2c[nH]c3ccccc23)NC(=O)[C@H](Cc2ccc(O)cc2)NC(=O)[C@H](NC(=O)[C@H](Cc2ccc(Cl)cc2)NC(=O)CN2CCN(CC(=O)O)CCN(CC(=O)O)CCN(CC(=O)O)CC2)CSSC[C@@H](C(=O)N[C@H](Cc2ccc(O)cc2)C(N)=O)NC1=O` [^177Lu-SS-03, metal not drawn], the “log D” value in [6] is recorded as “− 2.35 ± 0.22”. Also, the tissue uptake at 1 h turned out to be 3.7 ± 0.63 %ID/g in the data set “in vivo” (Adrenal uptake); 0.57 ± 0.04 %ID/g in the data set “in vivo” (Blood uptake); 4.11 ± 0.53 %ID/g in “in vivo” (Bone uptake); 0.69 ± 0.12 %ID/g in the data set “in vivo” (Heart uptake); 3.13 ± 1.16 %ID/g in the data set “in vivo” (Intestine uptake); 15.2 ± 1.86 %ID/g in the data set “in vivo” (Kidney uptake). The tissue uptake at 1 h in “in vivo” (Liver uptake) worked out at 3 ± 0.66 %ID/g; in the data set “in vivo” (Lung uptake), 13.2 ± 4.49 %ID/g; in the data set “in vivo” (Muscle uptake), 0.22 ± 0.06 %ID/g; in the data set “in vivo” (Pancreas uptake) it was 72.6 ± 13.8 %ID/g; in “in vivo” (Spleen uptake), 1.51 ± 0.19 %ID/g; in the data set “in vivo” (Stomach uptake), 48.7 ± 13.1 %ID/g. For the same molecule, the tissue uptake at 1 h in “in vivo” (Tumour uptake) was 23.6 ± 1.28 %ID/g. Besides, the tissue uptake at 4 h was determined as 2.9 ± 0.46 %ID/g in the data set “in vivo” (Adrenal uptake); 0.21 ± 0.04 %ID/g in “in vivo” (Blood uptake); 2.77 ± 1.06 %ID/g in “in vivo” (Bone uptake); 0.38 ± 0.07 %ID/g in the data set “in vivo” (Heart uptake); 2.28 ± 0.31 %ID/g in “in vivo” (Intestine uptake); 17 ± 1.81 %ID/g in the data set “in vivo” (Kidney uptake). The tissue uptake at 4 h turned out to be 1.75 ± 0.22 %ID/g in “in vivo” (Liver uptake); 6.71 ± 1.37 %ID/g in “in vivo” (Lung uptake); 0.12 ± 0.02 %ID/g in the data set “in vivo” (Muscle uptake); 54.5 ± 7.28 %ID/g in the data set “in vivo” (Pancreas uptake); 1.42 ± 0.77 %ID/g in the data set “in vivo” (Spleen uptake); 30.2 ± 4.25 %ID/g in the data set “in vivo” (Stomach uptake). Moreover, the tissue uptake at 4 h in “in vivo” (Tumour uptake) was 31.7 ± 4 %ID/g. Moreover, the tissue uptake at 24 h in “in vivo” (Adrenal uptake) is 1.16 ± 0.46 %ID/g; in the data set “in vivo” (Blood uptake) it was below 0.1 %ID/g; in “in vivo” (Bone uptake) it was 1.25 ± 0.16 %ID/g; in the data set “in vivo” (Heart uptake), 0.11 ± 0.04 %ID/g; in “in vivo” (Intestine uptake), 0.27 ± 0.06 %ID/g; in “in vivo” (Kidney uptake) it was 7.35 ± 1.66 %ID/g. Moreover, the tissue uptake at 24 h in “in vivo” (Liver uptake) was 0.47 ± 0.07 %ID/g; in the data set “in vivo” (Lung uptake), 0.74 ± 0.22 %ID/g; in “in vivo” (Muscle uptake) it was 0.07 ± 0.02 %ID/g; in the data set “in vivo” (Pancreas uptake) it was 3.03 ± 0.62 %ID/g; in the data set “in vivo” (Spleen uptake), 0.33 ± 0.06 %ID/g; in “in vivo” (Stomach uptake), 6.02 ± 1.4 %ID/g. In “in vivo” (Tumour uptake), the tissue uptake at 24 h stood at 26.3 ± 4.42 %ID/g. Also, the tissue to tissue ratio at 1 h in the data set “in vivo” (Tumour/blood ratio) turned out to be 41.3; in the data set “in vivo” (Tumour/bone ratio), 5.7; in the data set “in vivo” (Tumour/kidney ratio) it was 1.56; in “in vivo” (Tumour/liver ratio), 7.9; in “in vivo” (Tumour/muscles ratio), 110. Also, the tissue to tissue ratio at 4 h was 150 in the data set “in vivo” (Tumour/blood ratio); 11.5 in “in vivo” (Tumour/bone ratio); 1.86 in “in vivo” (Tumour/kidney ratio); 18.1 in the data set “in vivo” (Tumour/liver ratio); 259 in “in vivo” (Tumour/muscles ratio). For the same molecule, the tissue to tissue ratio at 24 h was 361 in “in vivo” (Tumour/blood ratio); 21.1 in “in vivo” (Tumour/bone ratio); 3.58 in the data set “in vivo” (Tumour/kidney ratio); 55.8 in “in vivo” (Tumour/liver ratio); 372 in the data set “in vivo” (Tumour/muscles ratio).
Take “DOTA-pNO2Phe-cyclo[D-Cys-Tyr-D-Trp-Lys-Thr-Cys]-D-Tyr-NH2 (disulfide) [DOTA-sst2-ANT]”: the IC50 in the data set with sst3 [7] is above 1000 nM; with sst4 [8] it was 287 ± 27 nM; with sst5 [9] it was above 1000 nM; with sst1 [10], above 1000 nM; in the data set with sst2 [11], 1.5 ± 0.4 nM.
For `C[C@@H](O)[C@@H]1NC(=O)[C@H](CCCCN)NC(=O)[C@@H](Cc2c[nH]c3ccccc23)NC(=O)[C@H](Cc2ccc(O)cc2)NC(=O)[C@H](NC(=O)[C@H](Cc2ccc(Cl)cc2)NC(=O)c2ccc(NN)nc2)CSSC[C@@H](C(=O)N[C@H](Cc2ccc(O)cc2)C(N)=O)NC1=O` [^99mTc-SS-05, metal not drawn], the “log D” value in data set [6] is reported as “− 2.03 ± 0.27”.
